# From patent US20240254220A1 (CENTRICSBIO, published 2024)
# T1: CD300c antigen (11832-H08H, Sino Biological) (human, UniProt Q08708 21-183)
# T1 construct: Bought antigen; also called CD300c protein; CD300 antigen-like family member C
# T1 sequence (looked up): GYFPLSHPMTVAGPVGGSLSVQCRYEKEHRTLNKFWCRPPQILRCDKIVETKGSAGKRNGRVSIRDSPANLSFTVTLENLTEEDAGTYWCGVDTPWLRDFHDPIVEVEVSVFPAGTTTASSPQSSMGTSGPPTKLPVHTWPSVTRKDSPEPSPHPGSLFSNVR
# Biological target: T1, CD300c antigen (11832-H08H, Sino …)
# Test: selection ELISA of Example 1.2, scFv periplasmic extract on coated CD300c antigen
# Experimental: In order to select anti-CD300c monoclonal antibodies specifically binding, with high binding affinity, to a CD300c antigen, ELISA was performed using the library pool obtained by the same method as in Example 1.1. More specifically, each of a CD300c antigen and a CD300a antigen in a coating buffer (0.1 M sodium carbonate, pH 9.0) was dispensed into an ELISA plate at a concentration of 5 μg/mL per well, followed by incubation at room temperature for 3 hours, to allow the antigen to bind to the plate. The unbound antigens were removed by washing three times using phosphate buffered saline-Tween 20 (PBST), and then 350 μL of PBST supplemented with 2% bovine serum albumin (BSA) was added to each well, followed by incubation at room temperature for 1 hour and then washing again using PBST. Then, 25 μg of a periplasmic extract containing scFv obtained by the same method as in Example 1.1 was added thereto, followed by incubation for 1 hour at room temperature for antigen binding. After 1 hour, the unbound scFv was removed by washing three times using PBST, and then 4 μg/mL of an antibody for detection was added, followed by incubation again at room temperature for 1 hour. Subsequently, the unbound antibodies for detection were removed using PBST, and then HRP-conjugated anti-rabbit IgG was added, followed by incubation at room temperature for 1 hour. The unbound antibodies were removed again using PBST. Subsequently, 3,3′,5,5′-tetramethylbenzidine (TMB) solution was added, followed by incubation for 10 minutes for development. Then, 2 N sulfuric acid solution was added to terminate the development reaction, and the absorbance was measured at 450 nm to identify the antibodies specifically binding to the CD300c antigen.
row,binding result,Binder
1,binds,"CB301_H3L1_E6 (antibody, V domains shown) VH: not shown VL: QSVLTQPPSASGTPGQRVTISCRGNNIGSKRVHWYQQLPGTAPKLLIYSYNHRPSGVPDRFSGSKSGTSASLAITGLRSEDEADYYCNTWDDSLEGPVFGGGTKLTVL"
2,binds,"CB301_H3L1_A10 (antibody, V domains shown) VH: EVQLLESGGGLVQSGGSLRLSCAASGFTFSSYGMHWVRQAPGKGLEWVSAISGSGGSTYYADSVKGRFTISRDNSKNTLYLQMNSLRAEDTAVYYCVRGYGAMDVWGQGTLVTVSS VL: QSVLTQPPSASGTPGQRVTISCTRSSGSIASNYVQWYQQLPGTAPKLLIYRNNQRPSGVPDRFSGSKSGTSASLAISGLRSEDEADYYCSSYTTSSTLVFGGGTKLTVL"
3,binds,"CB301_H3L1_A12 (antibody, V domains shown) VH: EVQLLESGGGLVQPGGSLRLSCAASGFTFSSYAMHWVRQAPGKGLEWVSAISGSGGSTYYADSVKGRFTISRDNSKNTLYLQMNSLRAKDTAVYYCASGYGLMDVWGQGTLVTVSS VL: QSVLTQPPSASGTPGQRVTISCTGTSSDVGNYNLVSWYQQLPGTAPKLLIYSNNQRPSGVPDRFSGSKSGTSASLAISGLRSEDEADYYCSSYTGSNALLFGGGTKLTVL"

# Biological target: T1, CD300c antigen (11832-H08H, Sino …)
# Test: binding ELISA, plate coated with CD300c antigen (8 µg/mL), HRP anti-Fc IgG detection
# Experimental: In order to identify the antigen-binding ability of the anti-CD300c monoclonal antibodies produced in Example 1, binding ELISA was performed. Specifically, a CD300c antigen (11832-H08H, Sino Biological) or a CD300a antigen (12449-H08H, Sino Biological) in a coating buffer (0.1 M sodium carbonate, pH 9.0) was dispensed into an ELISA plate at a concentration of 8 μg/mL per well, followed by incubation at room temperature for 3 hours to allow the antigen to be bound to the plate. The unbound antigens were removed by washing three times using phosphate buffered saline-Tween 20 (PBST), and then 300 μL of PBST supplemented with 5% bovine serum albumin (BSA) was added to each well, followed by incubation at room temperature for 1 hour and then washing using PBST. Then, an anti-CD300c monoclonal antibody was diluted in quadruplicate and added thereto, followed by incubation for 1 hour at room temperature for antigen binding. After 1 hour, washing was performed three times using PBST to remove unbound anti-CD300c monoclonal antibody, and then 4 μg/mL of an antibody for detection (HRP conjugated anti-Fc IgG) was added, followed by incubation again at room temperature for 1 hour. Subsequently, the unbound antibody for detection was removed using PBST, and then TMB solution was added, followed by incubation for 10 minutes for development. Then, 2 N sulfuric acid solution was added to terminate the development reaction, and the absorbance was measured at 450 nm to identify the antibodies specifically binding to the CD300c antigen.
row,EC50 [µg/mL],Binder
1,14.7,"SK15 (antibody, V domains shown, also called anti-CD300c monoclonal antibody SK15; CB301 antibody SK15) VH: RVQLLESGGGLVQPGGSLRLSCAASGFTFSSYAMHWVRQAPGKGLEWVSAINGSGGSTYYADSVKGRFTISRDNSKNTLYLQTNSLRAEDTAVYYCARGLQGFDYWGQGTLVTVSS VL: EIVLTQSPGTLSLSPGERATLSCQASQDITNYLNWYQQKPGQAPRLLIYDASSLETGIPDRFSGSGSGTDFTLTISRLEPEDFAVYYCQQSYSTPITFGQGTKVEIK"
2,2.42,"SK16 (antibody, V domains shown, also called anti-CD300c monoclonal antibody SK16; CB301 antibody SK16) VH: RVQLLESGGGLVQPGGSLRLSCAASGFTFSSYAMSWVRQAPGKGLEWVSAINGSGGSTLYADSVKGRFTISRDNSKNTLYLQMNSLRAEDTAVYYCARGVSGFDSWGQGTLVTVSS VL: EIVLTQSPGTLSLSPGERATLSCRISQSISSYLNWYQQKPGQAPRLLIYDASLRATGIPDRFSGSGSGTDFTLTISRLEPEDFAVYYCQQSYKTPITFGQGTKVEIK"
3,0.067,"SK12 (antibody, V domains shown, also called anti-CD300c monoclonal antibody SK12; CB301 antibody SK12) VH: RVQLLESGGGLVQPGGSLRLSCAASGFTFSSYAMHWVRQAPGKGLEWVSAISGSGGDTYHADSVKGRFTISRDNSKNTLYLQMNSLRAEDTAVYYCTRGLSGFDYWGQGTLVTVSS VL: EIVLTQSPGTLSLSPGERATLSCRASQSISSYLNWYQQKPGQAPRLLIYDASNRAPGIPDRFSGSGSGTDFTLTISRLEPEDFAVYYCQQSYSIPITFGQGTKVEIKF"
4,0.052,"SK11 (antibody, V domains shown, also called anti-CD300c monoclonal antibody SK11; CB301 antibody SK11) VH: RVQLLESGGGLVQPGGSLRLSCAASGFTFSTYGMHWVRQAPGKGLEWVSAISGSGGSTYYADSVKGRFTISRDNSKNTLYLQMNSLRAEDTAVYYCARGLSGLDYWGQGTLVTVSS VL: EIVLTQSPGTLSLSPGERATLSCRSSQGITNYLAWYQQKPGQAPRLLIYDASNRATGIPDRFSGSGSGTDFTLTISRLEPEDFAVYYCQQSYSTPLTFGQGTKVEIK"
5,0.033,"CK2 (antibody, V domains shown, also called anti-CD300c monoclonal antibody CK2; CB301 antibody CK2) VH: EVQLLESGGGLVQPGGSLRLSCAASGFTFSSYGMHWVRQAPGKGLEWVSAISGSGTSIYYADSVKGRFTISRDNSKNTLYLQMNSLRAEDTAVYYCARGGTAFDYWGQGTLVTVSS VL: EIVLTQSPGTLSLSPGERATLSCRASQRSDNYLAWYQQKPGQAPRLLIYDASNRATGIPDRFSGSGSGTDFTLTISRLEPEDFAVYYCQQSYSTPFTFGQGTKVETK"
6,0.031,"CL4 (antibody, V domains shown, also called anti-CD300c monoclonal antibody CL4; CB301 antibody CL4) VH: RVQLLESGGGLVQPGGSLRLSCAASGFTFGSNYMSWVRQAPGKGLEWVSTISGSGTSTYYADSLKGRFTISRDNSKNTLYLQMNSLRAEDTAVYYCARGMWGMDVWGQGTLVTVSS VL: QSVLTQPPSASGTPGQRVTISCTGKHRHTVNWYQLLPGTAPKLLIYLDSERPSGVPDRFSGSKSGTSASLAISGLRSEDEADYYCQSYDSSSVVFGGGTKLTVL"

# Continued, binder first:
row,Binder,EC50 [µg/mL]
1,"CL9 (antibody, V domains shown, also called anti-CD300c monoclonal antibody CL9; CB301 antibody CL9) VH: EVQLLESGGGLVQPGGSLRLSCAASGFTFSSYYWSWVRQAPGKGLEWVSAISGSGGSTYYADSVKGRFTISRDNSKNTLYLQMNSLRAEDTAVYYCARIDVYGFDIWGQGTLVTVSS VL: QSVLTQPPSASGTPGQRVTISCSGSTSNIGTNYVYWYQQLPGTAPKLLIYDNNNRPSGVPDRFSGSKSGTSASLAISGLRSEDEADYYCQTWDSSTDVVFGGGTKLTVL",0.094
2,"CK1 (antibody, V domains shown, also called anti-CD300c monoclonal antibody CK1; CB301 antibody CK1) VH: EVQLLESGGGLVQPGGSLRLSCAASGFTFSRYAMTWVRQAPGKGLEWVSSMSGTGGTTYYADSVKGRFTISRDNSKNTLYLQMNSLRAEDTAVYYCARGAYGFDHWGQGTLVTVSS VL: EIVLTQSPGTLSLSPGERATLSCRASQSIGNYLNWYQQKPGQAPRLLIYDASNLETGIPDRFSGSGSGTDFTLTISRLEPEDFAVYYCQQSSAIPYTFGQGTKVEIK",0.056
3,"CK3 (antibody, V domains shown, also called anti-CD300c monoclonal antibody CK3; CB301 antibody CK3) VH: RVQLLESGGGLVQPGGSLRLSCAASGFTFSSYAISWVRQAPGKGLEWVSATSGSGRATYYADSVKGRFTISRDNSKNTLYLQMNSLRAEDTAVYYCARDTWWEGYFDLWGQGTLVTVSS VL: EIVLTQSPGTLSLSPGERATLSCQASHISTHLNWYQQKPGQAPRLLIYGASSRATGIPDRFSGSGSGTDFTLTISRLEPEDFAVYYCQQYNTYPPTFGQGTKVEIK",0.793
4,"CL5 (antibody, V domains shown, also called anti-CD300c monoclonal antibody CL5; CB301 antibody CL5) VH: RVQLLESGGGLVQPGGSLRLSCAASGFTFSSYAMHWVRQAPGKGLEWVSSISGGGYGTYYADSVKGRFTISRDNSKNTLYLQMNSLRAEDTAVYYCARSTVWAFDIWGQGTLVTVSS VL: QSVLTQPPSASGTPGQRVTISCSGNNIGSKSVHWYQQLPGTAPKLLIYDVSKRPSERPDRFSGSKSGTSASLAISDLRSEDEADYYCQSFDSSGTWIFGGGTKLTVL",0.032
5,"SK13 (antibody, V domains shown, also called anti-CD300c monoclonal antibody SK13; CB301 antibody SK13) VH: RVQLLESGGGLVQPGGSLRLSCAASGFTFSDYAMSWVRQAPGKGLEWVSSISSSSSYIYYTDSVKGRFTISRDNSKNTLYLQMNSLRAEDTAVYYCARGGYGFDYWGQGTLVTVSS VL: EIVLTQSPGTLSLSPGERATLSCRASQSISSYLNWYQQKPGQAPRLLIYSASSRPQGIPDRFSGSGSGTDFTLTISRLEPEDFAVYYCQQYDDLPFTFGQGTKVEIK",0.044
6,"CL6 (antibody, V domains shown, also called anti-CD300c monoclonal antibody CL6; CB301 antibody CL6) VH: EVQLLESGGGLVQPGGSLRLSCAASGFTFSSYGMHWVRQAPGKGLEWVSAISGSGGSTYYADSVKGRFTISRDNSKNTLYLQMNSLRAEDTAVYYCAVSGAGRGFFDYWGQGTLVTVSS VL: QSVLTQPPSASGTPGQRVTISCSGSSSNIGSNYVYWYQQLPGTAPKLLIYEDNKRPSGVPDRFSGSKSGTSASLAISGLRSEDEADYYCSSYTSSSTVIFGGGTKLTVL",0.148
7,"SK17 (antibody, V domains shown, also called anti-CD300c monoclonal antibody SK17; CB301 antibody SK17) VH: EVQLLESGGGLVQPGGSLRLSCAASGFTFSSYYWSWVRQAPGKGLEWVSTITGSGGSTDYANSVKGRFTISRDNSKNTLYLQMNSLRAEDTAVYYCATGGGIFDYWGQGTLVTVSS VL: EIVLTQSPGTLSLSPGERATLSCQASQTISNYLNWYQQKPGQAPRLLIYDASNRATGIPDRFSGSGSGTDFTLTISRLEPEDFAVYYCQQYNSYPPSFGQGTKVEIK",0.054
8,"SK14 (antibody, V domains shown, also called anti-CD300c monoclonal antibody SK14; CB301 antibody SK14) VH: EVQLLESGGGLVQPGGSLRLSCAASGFTFSNFAIAWVRQAPGKGLEWVSAISGRGTSTYYADSVKGRFTISRDNSKNTLYLQMNSLRAEDTAVYYCARGVSGFDSWGQGTLVTVSS VL: EIVLTQSPGTLSLSPGERATLSCRASQSISSHLAWYQQKPGQAPRLLIYDTSNRATGIPDRFSGSGSGTDFTLTISRLEPEDFAVYYCQQSYSTPFTFGQGTKVEIK",0.065
